Assay results as given in patent US20250026849A1 (ARCELLX, published 2025).
Positions count from the first letter of the chain named. Values belong to the binder of their own block, whether it stands above or below them.

Biological target: T1, BCMA (Homo sapiens (Human), UniProt Q02223 1-54, limits assumed)
T1 sequence: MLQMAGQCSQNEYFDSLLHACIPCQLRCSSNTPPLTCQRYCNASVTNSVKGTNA
Assay: ELISA, format not described
Parameters: unit not given here

B1: D-domain SEQ ID NO: 203 (designed binder)
chain: MGSWTEFWTRLNAIYERLDALGGSEAELAAFEKEIAAFESELQAYKGKGNPEVEKLRFTAASIRMYLQAYRHN
ELISA_avg: 8.43

B4: D-domain SEQ ID NO: 182 (designed binder)
chain: MGSWSEFWDRLYAIRIRLDALGGSEAELAAFEKEIAAFESELQAYKGKGNPEVEKLRSVAARIRNWLQAYRHN
ELISA_avg: 12.5

B5: D-domain SEQ ID NO: 183 (designed binder)
chain: B4 chain with D9F, Y12G, I16N, S58D, R62H, N65H
ELISA_avg: 14.9

B7: D-domain SEQ ID NO: 184 (designed binder)
chain: B4 chain with W8N, Y12D, I16W, K55W, S58Q, R62T, N65Y, W66R
ELISA_avg: 13.6

B11: D-domain SEQ ID NO: 227 (designed binder)
chain: MGSWSIEFWRLEAIKFRLIALGGSEAELAAFEKEIAAFESELQAYKGKGNPEVEFLRVEAAAIRRVLQAYRHN
ELISA_avg: 8.43

B12: D-domain SEQ ID NO: 244 (designed binder)
chain: MGSWYGFKYRLAVIKWYLEALGGSEAELASFEKYIAHFEHDLQAYKGKGNPEVEALRKEAAAIRDELQAYRHN
ELISA_avg: 9.05

B13: D-domain SEQ ID NO: 243 (designed binder)
chain: B12 chain with Y5S, W16F, K33L, Y34F, H37K, H40I, A44N
ELISA_avg: 13.1

B19: D-domain SEQ ID NO: 242 (designed binder)
chain: B12 chain with Y5S, G6D, W16F, K33S, Y34F, H40D, A44K
ELISA_avg: 13

B20: D-domain SEQ ID NO: 253 (designed binder)
chain: B12 chain with Y5S, S30T, K33E, Y34W, H37E, H40T, D41E, A44F
ELISA_avg: 14

B22: D-domain SEQ ID NO: 230 (designed binder)
chain: MGSWNEFYQRLEAIENRLQALGGSEAELAMFEVRIALFEDMLQGYKGKGNPEVEALKQEAIAILRELIAYRHN
ELISA_avg: 6.01

B23: D-domain SEQ ID NO: 174 (designed binder)
chain: MGSWYEFQLRLWAIHWRLIALGGSEAELAAFEKEIAAFESELQAYKGKGNPEVEWLRMRAAEIRNELQAYRHN
ELISA_avg: 20.6

B24: D-domain SEQ ID NO: 175 (designed binder)
chain: B23 chain with Q8A, L9H, W12E, H15E, W55E, M58Q, R59Y, E62A, E66Y
ELISA_avg: 9.48

B28: D-domain SEQ ID NO: 217 (designed binder)
chain: MGSWTEFYHRLYAIRERLSALGGSEAELAAFEKEIAAFESELQAYKGKGNPEVEYLRFGAAHIRHLLQAYRHN
ELISA_avg: 9.63

B30: D-domain SEQ ID NO: 178 (designed binder)
chain: MGSWFEFDRRLKAIDRRLMALGGSEAELAAFEKEIAAFESELQAYKGKGNPEVEWLRMQAAIIRNYLQAYRHN
ELISA_avg: 6.16

B31: D-domain SEQ ID NO: 176 (designed binder)
chain: MGSWYEFDTRLGAIRNRLGALGGSEAELAAFEKEIAAFESELQAYKGKGNPEVEWLRFQAAYIRFLLQAYRHN
ELISA_avg: 13.9

B32: D-domain SEQ ID NO: 177 (designed binder)
chain: B31 chain with D8W, T9V, G12T, N16W, G19E, F58E, Y62S, F65W, L66V
ELISA_avg: 5.72

B33: D-domain SEQ ID NO: 179 (designed binder)
chain: B31 chain with Y5V, D8W, T9E, G12D, R15D, F58W, Q59H, F65G, L66Y
ELISA_avg: 11.4

B35: D-domain SEQ ID NO: 213 (designed binder)
chain: MGSWYEFWKRLYAIEYRLFALGGSEAELAAFEKEIAAFESELQAYKGKGNPEVEALRKVAAKIREQLQAYRHN
ELISA_avg: 14.8

B37: D-domain SEQ ID NO: 238 (designed binder)
chain: MGSWDAFKHRLALIKWYLEALGGSEAELAHFEEYIAEFESNLQSYKGKGNPEVEALRKEAAAIRDELQAYRHN
ELISA_avg: 13

B38: D-domain SEQ ID NO: 233 (designed binder)
chain: B37 chain with D5Y, A6E, L13I, H30K, E33A, Y34W, S40M, N41I, S44R
ELISA_avg: 5.5

B39: D-domain SEQ ID NO: 237 (designed binder)
chain: MGSWYNFKHRLAIIKWFLEALGGSEAELAVFEVWIADFEHQLQEYKGKGNPEVEALRKEAAAIRDELQAYRHN
ELISA_avg: 16.4

B41: D-domain SEQ ID NO: 235 (designed binder)
chain: B39 chain with F17Y, V30R, V33N, W34F, D37N, H40T, E44L
ELISA_avg: 6.76

B43: D-domain SEQ ID NO: 234 (designed binder)
chain: B37 chain with D5Y, A6E, L13I, E33Q, E37D, S40G, N41T, S44K
ELISA_avg: 14.8

B44: D-domain SEQ ID NO: 241 (designed binder)
chain: B37 chain with D5N, A6S, H30T, E33W, E37S, N41E, S44Q
ELISA_avg: 10.3

B45: D-domain SEQ ID NO: 236 (designed binder)
chain: B39 chain with Y5F, N6Q, F17Q, V30W, V33Q, E44H
ELISA_avg: 10.4

B46: D-domain SEQ ID NO: 219 (designed binder)
chain: B28 chain with T5G, Y8D, H9V, Y12F, F58G, G59Y, H62Q, H65S, L66F
ELISA_avg: 7.35

B48: D-domain SEQ ID NO: 221 (designed binder)
chain: MGSWSEFDGRLGAIWDRLYALGGSEAELAAFEKEIAAFESELQAYKGKGNPEVEYLRDRAAQIREFLQAYRHN
ELISA_avg: 10

B52: D-domain SEQ ID NO: 226 (designed binder)
chain: MGSWYEFVTRLHAIDHRLKALGGSEADLAAFEKEIAAFESELQAYKGKGNPEVEWLRFYAAGIRMNLQAYRHN
ELISA_avg: 4.12

B53: D-domain SEQ ID NO: 229 (designed binder)
chain: MGSWIEFAMRLEAIENRLTALGGSEAELAIFESMIAHFEELLQNYKGKGNPEVEALIHEAFAIHKELWAYRHN
ELISA_avg: 10.7

Further lines, results first:

ELISA_avg: 6.16
B2: D-domain SEQ ID NO: 225 (designed binder)
chain: MGSWDEFQFRLAAIGFRLGALGGSEAELAAFEKEIAAFESELQAYKGKGNPEVEVLRRQAARIRHLLQAYRHN

ELISA_avg: 4.05
B3: D-domain SEQ ID NO: 228 (designed binder)
chain: MGSWGEFEHRLDPSTCVWLALGGSEAELAAFEKEIAAFESELQAYKGKGNPEVEKLRRGAAVIRHWLQAYRHN

ELISA_avg: 7.3
B6: D-domain SEQ ID NO: 215 (designed binder)
chain: B35 chain with Y5H, K9D, Y16F, A55S, K58Q, E65W, Q66H

ELISA_avg: 12.7
B8: D-domain SEQ ID NO: 211 (designed binder)
chain: B35 chain with Y5T, K9E, A55K, K58S, K62T, E65Y, Q66E

ELISA_avg: 11.7
B9: D-domain SEQ ID NO: 210 (designed binder)
chain: B4 chain with S5M, R15E, I16F, D19F, S58R, R62T, W66E

ELISA_avg: 9.95
B10: D-domain SEQ ID NO: 212 (designed binder)
chain: B4 chain with S5N, D9E, R15E, I16L, D19F, S58M, V59T, R62Y, W66E

ELISA_avg: 7.63
B14: D-domain SEQ ID NO: 245 (designed binder)
chain: B12 chain with H37Q

ELISA_avg: 13
B15: D-domain SEQ ID NO: 246 (designed binder)
chain: B12 chain with V13L, K33T, H37D, H40D, D41L

ELISA_avg: 11.7
B16: D-domain SEQ ID NO: 247 (designed binder)
chain: B12 chain with Y5S, G6T, R10H, K33D, H37Q, H40T, A44E

ELISA_avg: 7.75
B17: D-domain SEQ ID NO: 252 (designed binder)
chain: B12 chain with Y5Q, Y17M, S30F, K33N, Y34W, H37E, H40T, D41K, A44Q

ELISA_avg: 8.91
B18: D-domain SEQ ID NO: 256 (designed binder)
chain: B12 chain with Y5Q, G6H, V13I, S30F, K33S, Y34F, H37K, A44K

ELISA_avg: 5.99
B21: D-domain SEQ ID NO: 251 (designed binder)
chain: B12 chain with Y5H, S30M, K33G, Y34W, H37Q, H40I, D41T, A44Q

ELISA_avg: 4.09
B25: D-domain SEQ ID NO: 181 (designed binder)
chain: MGSWAEFDLRLRAIAKRLVALGGSEAELAAFEKEIAAFESELQAYKGKGNPEVEMLRLDAAYIRGVLQAYRHN

ELISA_avg: 12.4
B26: D-domain SEQ ID NO: 231 (designed binder)
chain: MGSWNEFYDRLRAIKKRLYALGGSEAELADFEEDIAQFEVDLQDYKGKGNPEVEALHREAHAITHELWAYRHN

ELISA_avg: 9.2
B27: D-domain SEQ ID NO: 216 (designed binder)
chain: B28 chain with T5D, Y8E, H9F, Y12G, I14L, E16W, S19I, L66I

ELISA_avg: 14.1
B29: D-domain SEQ ID NO: 218 (designed binder)
chain: B28 chain with T5V, Y8E, H9T, Y12D, E16M, S19G, H65A

ELISA_avg: 18.2
B34: D-domain SEQ ID NO: 180 (designed binder)
chain: MGSWAEFWDRLDAIDSRLNALGGSEAELAAFEKEIAAFESELQAYKGKGNPEVEYLREWAAYIRGYLQAYRHN

ELISA_avg: 17.1
B36: D-domain SEQ ID NO: 232 (designed binder)
chain: B37 chain with D5G, A6E, E33D, Y34W, E37V, S40V, N41Q, S44N

ELISA_avg: 23.6
B40: D-domain SEQ ID NO: 239 (designed binder)
chain: B37 chain with A6G, H30N, E33N, Y34W, S40Q, N41R, S44Y

ELISA_avg: 16.5
B42: D-domain SEQ ID NO: 240 (designed binder)
chain: B37 chain with D5N, A6G, L13I, H30S, E33S, N41G, S44E

ELISA_avg: 4.95
B47: D-domain SEQ ID NO: 223 (designed binder)
chain: MGSWGEFNGRLGAIRERLQALGGSEAELAAFEKEIAAFESELQAYKGKGNPEVEFLRAYAASIRAVLQAYRHN

ELISA_avg: 6.17
B49: D-domain SEQ ID NO: 222 (designed binder)
chain: B47 chain with N8E, G12H, E16S, Q19S, F55V, A58G, S62W, V66L

ELISA_avg: 5.61
B50: D-domain SEQ ID NO: 220 (designed binder)
chain: B48 chain with S5V, G9E, G12S, W15R, D16E, Y19D, D58L, R59Y, E65V

ELISA_avg: 5.75
B51: D-domain SEQ ID NO: 224 (designed binder)
chain: MGSWWEFTFRLAAIEFRLEALGGSEAELAAFEKEIAAFESELQAYKGKGNPEVEDLRAIAAEIRKSLQAYRHN
